Assay results: patent US20240026334

Target: type I collagen (Rattus norvegicus) (UniProt P02454+P02466)
Details: maximum binding at 12-18% DNA mass fraction; binding decreases at higher DNA fraction, no fibers at ~45% DNA; collagen species not stated in this example

Sequence of type I collagen (Rattus norvegicus) (P02454 152-1207, chain 1 of 2): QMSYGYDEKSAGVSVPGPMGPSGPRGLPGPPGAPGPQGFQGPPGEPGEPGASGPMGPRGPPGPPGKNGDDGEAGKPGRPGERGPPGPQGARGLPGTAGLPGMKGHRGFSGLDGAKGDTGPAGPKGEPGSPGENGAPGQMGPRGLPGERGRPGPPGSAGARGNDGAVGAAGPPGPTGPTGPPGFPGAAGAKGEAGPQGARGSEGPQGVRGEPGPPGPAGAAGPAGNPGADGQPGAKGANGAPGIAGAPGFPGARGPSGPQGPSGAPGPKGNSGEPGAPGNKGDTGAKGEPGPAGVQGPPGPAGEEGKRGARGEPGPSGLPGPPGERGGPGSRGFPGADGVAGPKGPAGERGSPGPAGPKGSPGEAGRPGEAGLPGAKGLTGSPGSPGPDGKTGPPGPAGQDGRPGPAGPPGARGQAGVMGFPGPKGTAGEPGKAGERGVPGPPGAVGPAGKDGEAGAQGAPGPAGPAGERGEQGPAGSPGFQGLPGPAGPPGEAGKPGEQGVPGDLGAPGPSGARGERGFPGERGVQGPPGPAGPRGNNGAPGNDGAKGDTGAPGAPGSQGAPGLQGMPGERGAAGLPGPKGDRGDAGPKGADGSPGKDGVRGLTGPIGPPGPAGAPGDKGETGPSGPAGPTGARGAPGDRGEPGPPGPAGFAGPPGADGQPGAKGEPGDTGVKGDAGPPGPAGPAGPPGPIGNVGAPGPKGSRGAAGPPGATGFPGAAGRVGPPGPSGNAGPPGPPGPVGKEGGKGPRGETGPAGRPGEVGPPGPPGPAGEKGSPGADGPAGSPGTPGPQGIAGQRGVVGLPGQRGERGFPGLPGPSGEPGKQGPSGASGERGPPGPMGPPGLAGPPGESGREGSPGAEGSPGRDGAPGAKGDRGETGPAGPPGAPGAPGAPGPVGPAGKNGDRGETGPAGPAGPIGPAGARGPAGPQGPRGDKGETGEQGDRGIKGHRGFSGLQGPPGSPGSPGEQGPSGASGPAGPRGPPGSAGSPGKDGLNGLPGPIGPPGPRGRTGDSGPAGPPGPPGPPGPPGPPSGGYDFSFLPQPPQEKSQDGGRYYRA
Sequence of type I collagen (Rattus norvegicus) (P02466 86-1125, chain 2 of 2): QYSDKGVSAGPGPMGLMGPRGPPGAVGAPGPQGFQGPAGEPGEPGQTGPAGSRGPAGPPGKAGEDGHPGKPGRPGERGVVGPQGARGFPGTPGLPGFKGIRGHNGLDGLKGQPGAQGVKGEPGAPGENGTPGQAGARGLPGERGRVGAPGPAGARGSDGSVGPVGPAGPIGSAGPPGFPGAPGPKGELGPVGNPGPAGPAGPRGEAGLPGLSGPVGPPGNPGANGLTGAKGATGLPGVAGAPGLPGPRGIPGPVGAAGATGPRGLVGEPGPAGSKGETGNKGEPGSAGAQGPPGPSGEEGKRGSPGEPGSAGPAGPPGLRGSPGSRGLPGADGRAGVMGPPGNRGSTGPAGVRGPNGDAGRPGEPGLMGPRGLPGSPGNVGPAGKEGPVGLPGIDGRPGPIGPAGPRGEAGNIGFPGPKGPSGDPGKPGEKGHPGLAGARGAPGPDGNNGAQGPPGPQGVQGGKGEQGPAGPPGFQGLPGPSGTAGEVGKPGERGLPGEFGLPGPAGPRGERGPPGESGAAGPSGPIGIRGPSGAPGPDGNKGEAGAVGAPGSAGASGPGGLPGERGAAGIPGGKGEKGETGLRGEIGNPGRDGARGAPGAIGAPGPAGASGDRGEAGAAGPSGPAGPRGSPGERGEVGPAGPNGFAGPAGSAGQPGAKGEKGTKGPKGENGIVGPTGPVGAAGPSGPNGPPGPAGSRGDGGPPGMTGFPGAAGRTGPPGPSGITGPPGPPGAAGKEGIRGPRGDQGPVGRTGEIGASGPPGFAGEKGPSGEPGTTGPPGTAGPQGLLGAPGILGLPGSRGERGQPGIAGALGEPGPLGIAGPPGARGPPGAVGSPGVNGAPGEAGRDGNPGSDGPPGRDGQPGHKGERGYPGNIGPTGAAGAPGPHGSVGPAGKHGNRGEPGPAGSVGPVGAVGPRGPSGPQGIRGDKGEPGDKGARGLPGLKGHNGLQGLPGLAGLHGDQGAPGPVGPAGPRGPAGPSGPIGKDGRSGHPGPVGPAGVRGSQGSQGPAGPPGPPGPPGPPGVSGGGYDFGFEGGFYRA

## AATTTAGGAGCTGAAGGTCAGGGCACCAGCAGCCTTTGGAAGCCTAVAGGACAACAGTCAGCCTGGCTAGAAAAAAAAACAATGTCACAG [90 nt random ssDNA oligomer]
  binding (ug ssDNA/ug collagen): 0.15
